Laboratory results as given in the DeepSol protein solubility set.

Assay: soluble on expression in E. coli; label from the status in PepcDB or PDB records

Sequence | soluble on expression in E. coli
MGSDKIHHHHHHMNEKELAGWFPQAKLSQEADAQSLALGDGRYLNLADADLTERERYLLSLLSHPQEQKPSSPWQSYLHGQSSLPQAVEAIQFIHVHLWSQKDAQLDAWQTMMTDLLPSQLAQVQLSSQDYLFIIEQSRWTDYQTILADTLSALEFDFGLRLTFLVGQVWSRQLADRWSQLYQAEAALFAHWRAHYHQSTVLSFSQLFLWGQGRAGLEFGMIKASMLQLIDQQDMQDIILALWTEGAVVTKTAQILYIHRNTLQYRLDKWQDLTGLQLKDLTDLSFCYQVLLDRLF | not soluble
MGHHHHHHSHYPPIEFDKYKCKNSEDFYLFVGRLWHEKRPEEAIRGCIKAKKKIVVIGSGYLEKYLRDKYGKNPYVEIKGFVSEEEKVDLLASCKAVIYPCIAEDFGIVPIEAFASGKPVIADNSGFPPYVVNEERGIITDCSNPDNIAKAIEELEKKKYDPDKIREFAKQF | soluble
GPLGSPPSKEILTLKQVQEFLKDGDDVVILGVFQGVGDPGYLQYQDAANTLREDYKFHHTFSTEIAKFLKVSLGKLVLMQPEKFQSKYEPRMHVMDVQGSTEASAIKDYVVKHALPLVGHRKTSNDAKRYSKRPLVVVYYSVDFSFDYRTATQFWRNKVLEVAKDFPEYTFAIADEEDYATEVKDLGLSESGGDVNAAILDESGKKFAMEPEEFDSDALREFVMAFKKGKLKPVIKSQPVPKNNKGAAAS | soluble
MSEEIKQEVKEEAPETTTEAKTEEAAPVAEVVAEVVTNGDKPAENGKTEEPSKYAETENYKKLIGLKMKPALADVVCEIYESGLLGPEDLDDRAVDIINSVNLDQAKFIFTEIKNSELFGVATKSLYVTSLIRSFKDRCRQQGAAAVTSGKLINGPELAALKNLLETTGYTIEVTIGQRKFGGPPPDWEGPATGPAGQGHEIYVGHIPTDVFEDTLVPLFEKSGKIWDLRLMMDPMSGASRGYAFVTYCNKEDAAAAAKTYDGHEISTGKPLKVNVSIANTRLFIGNIPKTKSKDEILEELKTHAEGVVDVIVYSVPDNEKIKNRGFCFVDFIDHKTASDIKRKIAQHKIRPFNADVYVDWAEHQEEPDEDTMSKVKVLYIRNIKEAVTEEKLNELFKEYASLDRVKKVKDYAFIHFNERDDCLKAMEEWNGKELEGTVVEASLAKPPQEKKKKPVMRGRGFGGAGGGAGNHGQRGGQRGGGQWGGNAGPGGYYPNHFNNGYDMPMPWGGGYGGDMGYGAYGGGYGGGYGGPGAYGDFGAYGGGGFRGGMRGSPRGGMGGGGGFRGGPPGRGGMANRRGRGKRPGDGRGGPASKRDNGKPDFSADVNMSTF | not soluble
MRRQAEAYKAQLAAMVESSDDAIIVKDLNAIITSWNAGAERIFGYQASEITGSSILALIPPERHEEEKGIMSLVKSGNRVDHFETMWWGKGKKPIDVSVTTSAVKDSDGNIVGISQIARDLEHHHHHH | not soluble
MAHHHHHHMRGQRSGKFAEYTATYAILKRIGLHQTVLIEKRDASVGYGVYVRDACDSGTPLLVVPSRHAFSLSTVQKLGARVRQEDLMQSPQLEILNRGVLSRLLGCTAGEWISLAWRLAIEHQRSLSPWWGWLNVLPRMQDFRTMEDESGRQCRLHRVQLLPYFIEVQGSMQEEICSAYEVLSEKNLMPSPNHFRWAVDVILTRSHRLPACWTNGEGSSVELGIIPFVDLVNGDDGGERRRNARVEVAFEVEELPRWYRDEFLQESERRHVNGEEALRRLLEEHFFALVALERDLTASEEVIMEYELVPWVTGALSHEDDLLLGRLLRYRF | not soluble
MNTVSPAKKKVIIIGAGIAGLKAASTLHQNGIQDCLVLEARDRVGGRLQTVTGYQGRKYDIGASWHHDTLTNPLFLEEAQLSLNDGRTRFVFDDDNFIYIDEERGRVDHDKELLLEIVDNEMSKFAELEFHQHLGVSDCSFFQLVMKYLLQRRQFLTNDQIRYLPQLCRYLELWHGLDWKLLSAKDTYFGHQGRNAFALNYDSVVQRIAQSFPQNWLKLSCEVKSITREPSKNVTVNCEDGTVYNADYVIITVPQSVLNLSVQPEKNLRGRIEFQPPLKPVIQDAFDKIHFGALGKVIFEFEECCWSNESSKIVTLANSTNEFVEIVRNAENLDELDSMLEREDSQKHTSVTCWSQPLFFVNLSKSTGVASFMMLMQAPLTNHIESIREDKERLFSFFQPVLNKIMKCLDSEDVIDGMRPIENIANANKPVLRNIIVSNWTRDPYSRGAYSACFPGDDPVDMVVAMSNGQDSRIRFAGEHTIMDGAGCAYGAWESGRREATRISDLLKLEHHHHHH | soluble
GAVFEFDNLAPMLATHGTVAGLKASQWAFEGKWDGYRLLVEADHGAVRLRSRSGRDVTAEYPQLRALAEDLADHHVVLDGEAVVLDSSGVPSFSQMQNRGRDTRVEFWAFDLLYLDGRALLGTRYQDRRKLLETLANATSLTVPELLPGDGAQAFACSRKHGWEGVIAKRRDSRYQPGRRCASWVKDKHWNTQEVVIGGWRAGEGGRSSGVGSLLMGIPGPGGLQFAGRVGTGLSERELANLKEMLAPLHTDESPFDVPLPARDAKGITYVKPALVAEVRYSEWTPEGRLRQSSWRGLRPDKKPSEVVRE | soluble
MGSDKIHHHHHHMGTFFVDFYNEYPDTSYIKIPTNPLDRVIGQDDAVKIAMVAAKQRRHLLLVGPPGVGKSMIAQAMSFYIDRPTEEIRVVHNPQYPERPFVEIKTREEVMAEREEETSTSGIIIDPKDAPTSVAERLGYRCSKCGFYSSPSDAVCPNCNSPKIQMGTQGPFGDVFNVIGAAFGVQNNLDKVTLTRRNGDHDEIIVYERYNDKIRVLDEKTLERRRRLEKKSPSKTIVPIDRNPFVLATGASETELLGDVRHDPYGGHPQLGTLPYERVIAGAVHEAHQGVLFIDEITHLGNLQRYILTAMQEKTFPITGRNPQSAGASVRVDKVPADFILVAACNINDLPYILSPLRSRIVGNGYEILMKTTMKDTDENRMKYLQFISQEITMDGKIPHMTMEAAELIIEEGKKRARIIDKKNNELTLRLRELGGLIRAAGDIAVFKGNKLIEKEDVEEAIKLYVPVEEKITKEYGSMAAAYSSENTTSQKDFYNYNLDDRSYE | not soluble
MARQSSSLKSFIYKDECYFYSKKCIKTLRLRLNEKGEFVLSIPYFCTFKSVYEFLDKSSSWMNEAKKRFEKKVLKDDELIFLAKKYKIIFDENTKKTYFDKDKIICQNKAKLDLFLRQNAKKIFTFYLKKWSQKTGLFYTHLSIKNMKTRWGSCNHNKAYVNLNLKLIQKSLRAIEYVILHEISHLKFPNHSKEFYTFIEHFMSDFRQREKEFLSLEHHHHHH | soluble
QKKIADRLMKFEEQLPEALDIIKRVLQAGQPITQAFGEVGREVSAPLGPEFLNTFNLLNYGYDLRLAIMQMSERTPTVSMLAFSSAVLLQKETGGNLVENIEKLSHILRARFKLARKIKTISAESRMS | not soluble
MGSDKIHHHHHHMAIIETRGIWLTTTDSKVLRSKQRIAEAMDLLAETGFNVVFPVVWNKAVTLYPSQTMQETFGVEIDPMSVGRDPLEEVVVEARRVGLKVIPWFEYGFASSYNLNGGVLLQKKPEWAARDFNGNLLNKNGFEWLNALDSQVQEFFLNLVLEVVKNYDVDGVQGDDRLPAFPCEGGYDEGTVSRYRQEYDRNPPQNPKDRQWLQWRADILTDFLARLYGEVKAVNPNLLVAIAPNIHDWAFQEYLQDSPTWLKRGIVDMIQPQIYRRDFGSYCAIADKLVSQQFTDATLPRLAPGILMKLGSYCISPEYLVQAIEYNRQLGIQGEVFFFYEGLRENNNTLAKVLRNGPYAKSASFPTLSDLSVSGVSNKKTSSTWQRLLKKIF | not soluble
SRVDKFSKSDIIVSPSILSANFSKLGEQVKAIEQAGCDWIHVDVMDGRFVPNITIGPLVVDSLRPITDLPLDVHLMIVEPDQRVPDFIKAGADIVSVHCEQSSTIHLHRTINQIKSLGAKAGVVLNPGTPLTAIEYVLDAVDLVLIMSVNPGFGGQSFIESQVKKISDLRKICAERGLNPWIEVDGGVGPKNAYKVIEAGANALVAGSAVFGAPDYAEAIKGIKTSKRPE | soluble
MSTAPLENAPTPGGARFTKIYDEDGEHIITRDEHKGLEWTAHALDSRHAAGFGNLLRRSGAKKVCRELTLGGHTDWRVPEIEEAMSIGLVDTCWPANETWFWTCTPCEQEPENKAWAFEFGTGNKRIEDRRIWLHVRAVRGQMRTDATATPKAGESLEHHHHHH | soluble
MTRHGKNCTAGAVYTYHEKRKDTAASGYGTQSVRLGKDAIKDFDCCSLSLQPCRDPVLTEDGYLYEKEAILQYILHQKTEIAKKMKAYEKQKQALKSEGQLESKSEERERAEKFKQRENNIVSKPINPFTSGKSKDEGNQNGSTSSSSTDTSSGESSSSSALPSFWIPSLTPEAKPTLLKKPSKTVSCPMSGRPLKMSDLITVRFTPLDPSLDRVALLTRQDRYVCAVTKDTLGNSVPCAVLRPSGVVVTMECVEKLIKKDMVDPITGDKLKEKDIIPIQRGGTGFAGSGVDLKAKEARPVMQA | not soluble
MGGDRAPDEILKGALLASKEVEGEIVLIGPEEIVKNKGLPFVSASEIVKMDDPPLEVLRKKNSSMHMGLKLLSEGKVDAFVSAGATGPLFLGATSIVGKLEGIERPALGVAVPSLKGATVLIDAGANAKVRPEHLVDFAFMGIAYSKVLGAENPRVGLLNMGSEENKGPDDIKRAYQLLKEFLGDTFFGNVEGHDINLGTVDVVVADGFSGNVALKTMEGTAKLVTSVLKESIKDGGFLSLLGALLMKRSFDKMKEKLDPRSYGGTFILGVKGIVVKAHGSSDAKAIKHAIKVAEKGIRVNIVQEIERGISHVRNSGDGR | soluble
MVEELFYKKILKNLFSDPVQITLWNGETIQYGEGEPQFHVTFHKPLSKKEIAKDPSIAFGEAYMNGDLEIEGNLEKAIQSIYKRQDSFLGDSKLQYFKSKWNFSKQKNKDDIAHHYDIGNDFYKLWLDETMTYSCAYFQNEQDSLTTAQHNKVNHILKKLNLQKGDTLLDIGCGWGELITAAAKQYGVKAMGVTLSEEQYAKASERIKQEGLTDLVEVSLLDYRDIKNQKFDKIVSVGMIEHVGKDNITQYFETVNTLLNDGGISLLHCITSPANGGATNGWIEKYIFPGGYVPAVNELITNMTNEQFFIVDVESLRRHYGKTLQHWARNFENVMEEVRKTKDERFIRMWRLYLNACAASFFTGNIDLHQFVFTKGINDTIPMTRSYMYE | not soluble
MEDILMPEGEKVSMENFALLRVLGKGAYGKVFLVRKVGGKDHNTIYAMKVLRKTRVLTKQKTLEHTMAERQVLERLRGTPFLVNLFYAFQTDTKLHIVMEYVRGGELFTHLCSRGHFDLEAARFVIAELVVAIDSLHQRKVIYRDLKLENILLDEEGHVKLTDFGLSKLFLPGELDRANSYCGTIEYMSPEVINRPEGGYSDVVDWWSLGVISFELLTGCSPFTVDGAQNSSKDIAKRIMTKKVPFPKTMDVDARDFIGQLLEKKLEKRLGYNGVDEIKNHKFMSSIDWDAAVKRTLKPVIVPRIGHDLDTQFFSAEFTSQPPLYSPAESPLNANTLFRGYSYVSPSVIFANDNVIGEELMAEDVNALLASSSFFAKYKLDKSDAGLLGKGAFSVVRRCERVVDGAQFAVKIVSQKFASQAQREARILEMVQGHPNIVQLHDVHSDPLHFYLVMEILTGNELLERIRKLERFTESEAADIMRQLVSAVKYLHDKRIVHRDLKPENILFESIDSSARLRLVDFGFARLLPNSMEQQLKSVQVLRKMTPCFTLQYAAPEVLDVGDSQPEYNEQCDLWSLGVVLFTMLSGQVPFHARSRQESATEIMQRICRAEFSFTGDAWTNVSADAKNLITGLLTVDPKKRLSMQELTAHMWLKSSASMDTPLQTPSILPSSADETFNETLRAFLHANRDGFHLLDVAAAPLMKRRGIKRQSGDKDASGNSKNSRVTQFECLPEEQEAEMTSSTSRPSNLGMMNYREPNSGTIRETRGSDSS | not soluble
MATDHIRYDVLARDALRGVLRHVLTDVAQHGLPGEHHFFITFQSKGDGVKLSPRLLAQYPEEMTVVLQHQFWDLVVTEDRFEVGLSFGGIPERLVVPFASIKSFFDPSVKFGLQFEAADEVDETGEADDGTELVTAAPAPVALPTSSATTDSSAPSDDEPPRSGEGAEVVRLDRFRKKLEHHHHHH | soluble
